In patent US5733790, “CRF binding protein antibodies and assays using same” (The Salk Institute for Biological Studies, dated 1998) one finds Kd data, which are given here for 1 molecule.

For orientation: Kd means a measure of binding affinity in units of concentration. A low value points to a tighter complex.

This assay concerns the target T1, rat/human corticotropin releasing factor (human and rat (same 41-residue sequence), C-terminal amide (NH2)).
T1 peptide: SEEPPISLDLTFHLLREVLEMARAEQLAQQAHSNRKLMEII
In words: binding assay, method not described.

B1: purified human CRF-BP (native 37 kD protein purified from human plasma) (other)
chain: YLELREAADYDPFLLFSANLKRELAGEQPYRRALRCLDMLSLQGQFTFTADRPQLHCAAFFISEPEEFITIHYDQVSIDCQGGDFLKVFDGWILKGEKFPSSQDHPLPSAERYIDFCESGLSRRSIRSSQNVAMIFFRVHEPGNGFTLTIKTDPNLFPCNVISQTPNGKFTLVVPHQHRNCSFSIIYPVVIKISDLTLGHVNGLQLKKSSAGCEGIGDFVELLGGTGLDPSKMTPLADLCYPFHGPAQMKVGCDNTVVRMVSSGKHVNRVTFEYRQLEPYELENPNGNSIGEFCLSGL
As to B1, the Kd was determined as 0.1 nM.
